Experimental data from PMC6377630, “NapM enhances the survival of Mycobacterium tuberculosis under stress and in macrophages” (Communications Biology, 2019).

Assays:
[1] = system: NapM (Mycobacterium tuberculosis H37Ra); experiment: EMSA; conditions: pH and temperature not stated
[2] = system: DnaA (Mycobacterium tuberculosis H37Ra); experiment: EMSA; conditions: pH and temperature not stated

oriC fragment
Kd [1]: 458 nM | Kd [2]: 60.5 nM
